The results in this text go back to FireProtDB (doi:10.1002/pro.3128).

For this data set the following is noted: Homo sapiens, pH 7.3, 25 °C, Sodium citrate 5mM, KF 50mM, transition: 2, reversible: no, whole UniProt chain shown.

B1: Pleckstrin homology domain-containing family F member 2 wild type, Q9H8W4 (protein)
chain: MVDRLANSEANTRRISIVENCFGAAGQPLTIPGRVLIGEGVLTKLCRKKPKARQFFLFNDILVYGNIVIQKKKYNKQHIIPLENVTIDSIKDEGDLRNGWLIKTPTKSFAVYAATATEKSEWMNHINKCVTDLLSKSGKTPSNEHAAVWVPDSEATVCMRCQKAKFTPVNRRHHCRKCGFVVCGPCSEKRFLLPSQSSKPVRICDFCYDLLSAGDMATCQPARSDSYSQSLKSPLNDMSDDDDDDDSSD
Consider B1, for which the denaturant m value by setting is: (GdnHCl, CD) 2.48 kcal/mol/M; (GdnHCl, Fluorescence) 2.93 kcal/mol/M; (Urea, CD) 1.16 kcal/mol/M; (Urea, Fluorescence) 1.19 kcal/mol/M. Further, the “denaturant midpoint (higher = more stable)” value came out at 1.51 M (GdnHCl, CD); 1.3 M (GdnHCl, Fluorescence); 3.45 M (Urea, CD); 3.42 M (Urea, Fluorescence). The unfolding free energy was determined as 3.75 kcal/mol (GdnHCl, CD); 3.8 kcal/mol (GdnHCl, Fluorescence); 4 kcal/mol (Urea, CD); 4.07 kcal/mol (Urea, Fluorescence).
